± gives the standard deviation of the averaged measurements.
Assay: total protein half-life in vivo (active degradation + dilution); higher = more stable protein
[1] = E. coli NCM3722 delta-clpP delta-lon delta-hslV, growth: N-lim chemostat, doubling time 6 h
[2] = E. coli NCM3722 delta-hslV, growth: N-lim chemostat, doubling time 6 h
[3] = E. coli NCM3722 delta-lon, growth: N-lim chemostat, doubling time 6 h
[4] = E. coli NCM3722 delta-smpB, growth: N-lim chemostat, doubling time 6 h
[5] = wild type E. coli NCM3722, growth: C-lim chemostat, doubling time 3 h
[6] = wild type E. coli NCM3722, growth: C-lim chemostat, doubling time 6 h
[7] = wild type E. coli NCM3722, growth: C-lim chemostat, doubling time 12 h
[8] = wild type E. coli NCM3722, growth: N-lim chemostat, doubling time 6 h
[9] = wild type E. coli NCM3722, growth: N-lim chemostat, doubling time 12 h
[10] = wild type E. coli NCM3722, growth: P-lim chemostat, doubling time 6 h
[11] = wild type E. coli NCM3722, growth: P-lim chemostat, doubling time 12 h
[12] = E. coli NCM3722 delta-clpP, growth: N-lim chemostat, doubling time 6 h

Sequence: MFVKLLRSVAIGLIVGAILLVAMPSLRSLNPLSTPQFDSTDETPASYNLAVRRAAPAVVNVYNRGLNTNSHNQLEIRTLGSGVIMDQRGYIITNKHVINDADQIIVALQDGRVFEALLVGSDSLTDLAVLKINATGGLPTIPINARRVPHIGDVVLAIGNPYNLGQTITQGIISATGRIGLNPTGRQNFLQTDASINHGNSGGALVNSLGELMGINTLSFDKSNDGETPEGIGFAIPFQLATKIMDKLIRDGRVIRGYIGIGGREIAPLHAQGGGIDQLQGIVVNEVSPDGPAANAGIQVNDLIISVDNKPAISALETMDQVAEIRPGSVIPVVVMRDDKQLTLQVTIQEYPATN [P0AEE3]
- total protein half-life in vivo [1]: 7.33 ± 0.89 h
- total protein half-life in vivo [2]: 5.79 ± 0.39 h
- total protein half-life in vivo [3]: 5.86 ± 0.29 h
- total protein half-life in vivo [4]: 6.21 ± 0.68 h
- total protein half-life in vivo [5]: 3.25 ± 0.23 h
- total protein half-life in vivo [6]: 5.91 ± 0.28 h
- total protein half-life in vivo [7]: 11.3 ± 1.2 h
- total protein half-life in vivo [8]: 5.98 ± 0.72 h
- total protein half-life in vivo [9]: 13.8 ± 2.3 h
- total protein half-life in vivo [10]: 7.16 ± 0.27 h
- total protein half-life in vivo [11]: 12.1 ± 0.81 h

Sequence: MHCPFCFAVDTKVIDSRLVGEGSSVRRRRQCLVCNERFTTFEVAELVMPRVVKSNDVREPFNEEKLRSGMLRALEKRPVSSDDVEMAINHIKSQLRATGEREVPSKMIGNLVMEQLKKLDKVAYIRFASVYRSFEDIKEFGEEIARLED [P0A8D0]
- total protein half-life in vivo [1]: 6.05 ± 0.84 h
- total protein half-life in vivo [12]: 5.91 ± 0.41 h
- total protein half-life in vivo [2]: 4.362 ± 0.017 h
- total protein half-life in vivo [4]: 4 ± 0.71 h
- total protein half-life in vivo [5]: 2.98 ± 1.4 h
- total protein half-life in vivo [6]: 4.6 ± 0.41 h
- total protein half-life in vivo [7]: 9.06 ± 0.4 h
- total protein half-life in vivo [8]: 4.15 ± 0.58 h
- total protein half-life in vivo [9]: 6.44 ± 0.094 h
- total protein half-life in vivo [10]: 4.677 ± 0.038 h
- total protein half-life in vivo [11]: 10.76 ± 0.082 h

Sequence: MRTTSFAKVAALCGLLALSGCASKITQPDKYSGFLNNYSDLKETTSATGKPVLRWVDPSFDQSKYDSIVWNPITYYPVPKPSTQVGQKVLDKILNYTNTEMKEAIAQRKPLVTTAGPRSLIFRGAITGVDTSKEGLQFYEVVPVALVVAGTQMATGHRTMDTRLYFEGELIDAATNKPVIKVVRQGEGKDLNNESTPMAFENIKQVIDDMATDATMFDVNKK
- total protein half-life in vivo [1]: 5.89 ± 0.069 h
- total protein half-life in vivo [2]: 6.47 ± 0.16 h
- total protein half-life in vivo [4]: 5.98 ± 0.26 h
- total protein half-life in vivo [5]: 3.33 ± 0.073 h
- total protein half-life in vivo [6]: 6.02 ± 0.91 h
- total protein half-life in vivo [7]: 10.3 ± 0.9 h
- total protein half-life in vivo [8]: 6.07 ± 0.31 h
- total protein half-life in vivo [9]: 12.8 ± 0.57 h
- total protein half-life in vivo [10]: 5.82 ± 0.2 h
- total protein half-life in vivo [11]: 13 ± 0.29 h

Sequence: MQKVVLATGNVGKVRELASLLSDFGLDIVAQTDLGVDSAEETGLTFIENAILKARHAAKVTALPAIADDSGLAVDVLGGAPGIYSARYSGEDATDQKNLQKLLETMKDVPDDQRQARFHCVLVYLRHAEDPTPLVCHGSWPGVITREPAGTGGFGYDPIFFVPSEGKTAAELTREEKSAISHRGQALKLLLDALRNG
- total protein half-life in vivo [1]: 4.93 ± 0.34 h
- total protein half-life in vivo [12]: 4.228 ± 0.016 h
- total protein half-life in vivo [2]: 4.12 ± 0.13 h
- total protein half-life in vivo [3]: 4.93 ± 0.076 h
- total protein half-life in vivo [4]: 3.951 ± 0.0058 h
- total protein half-life in vivo [5]: 3.16 ± 0.17 h
- total protein half-life in vivo [6]: 5.1 ± 0.19 h
- total protein half-life in vivo [7]: 8.51 ± 0.84 h
- total protein half-life in vivo [8]: 4 ± 0.17 h
- total protein half-life in vivo [9]: 6.87 ± 0.21 h
- total protein half-life in vivo [10]: 5.14 ± 0.35 h
- total protein half-life in vivo [11]: 10.7 ± 0.027 h

Sequence: MSKIKGNVKWFNESKGFGFITPEDGSKDVFVHFSAIQTNGFKTLAEGQRVEFEITNGAKGPSAANVIAL [P0A972]
- total protein half-life in vivo [1]: 3.54 ± 0.22 h
- total protein half-life in vivo [12]: 2.27 ± 0.041 h
- total protein half-life in vivo [2]: 1.7 ± 0.036 h
- total protein half-life in vivo [3]: 3.44 ± 0.12 h
- total protein half-life in vivo [4]: 1.96 ± 0.28 h
- total protein half-life in vivo [5]: 2.156 ± 0.014 h
- total protein half-life in vivo [6]: 2.37 ± 0.17 h
- total protein half-life in vivo [7]: 2.62 ± 0.54 h
- total protein half-life in vivo [8]: 1.8 ± 0.15 h
- total protein half-life in vivo [9]: 2.23 ± 0.19 h
- total protein half-life in vivo [10]: 1.945 ± 0.018 h
- total protein half-life in vivo [11]: 3.16 ± 0.3 h

Sequence: MPSTPEEKKKVLTRVRRIRGQIDALERSLEGDAECRAILQQIAAVRGAANGLMAEVLESHIRETFDRNDCYSREVSQSVDDTIELVRAYLK [P0AAP3]
- total protein half-life in vivo [1]: 6.53 ± 0.38 h
- total protein half-life in vivo [12]: 5.29 ± 0.36 h
- total protein half-life in vivo [2]: 4.99 ± 0.14 h
- total protein half-life in vivo [3]: > 8 h
- total protein half-life in vivo [4]: 3.92 ± 0.13 h
- total protein half-life in vivo [5]: 2.5 ± 0.24 h
- total protein half-life in vivo [6]: 5.52 ± 0.22 h
- total protein half-life in vivo [7]: 8.3 ± 1.8 h
- total protein half-life in vivo [8]: 4.16 ± 0.36 h
- total protein half-life in vivo [9]: 7.59 h
- total protein half-life in vivo [10]: 4.67 ± 1.9 h
- total protein half-life in vivo [11]: 8.57 ± 0.52 h

Sequence: MNISSLRKAFIFMGAVAALSLVNAQSALAANESAKDMTCQEFIDLNPKAMTPVAWWMLHEETVYKGGDTVTLNETDLTQIPKVIEYCKKNPQKNLYTFKNQASNDLPN [P0AET2]
- total protein half-life in vivo [12]: > 8 h
